Ten variants from article PMC11955279 (2025) can be followed below.

To fix the notation:
B1: AtSEP3 (…3), wild type, in pGADT7 [Arabidopsis thaliana] / AtAP1 (APETALA1), in pGBKT7 [Arabidopsis thaliana] (parent complex)
chain 1: MGRGRVELKRIENKINRQVTFAKRRNGLLKKAYELSVLCDAEVALIIFSNRGKLYEFCSSSSMLRTLERYQKCNYGAPEPNVPSREALAVELSSQQEYLKLKERYDALQRTQRNLLGEDLGPLSTKELESLERQLDSSLKQIRALRTQFMLDQLNDLQSKERMLTETNKTLRLRLADGYQMPLQLNPNQEEVDHYGRHHHQQQQHSQAFFQPLECEPILQIGYQGQQDGMGAGPSVNNYMLGWLPYDTNSI
chain 2: not shown

In the first assay the parent is B1. The experiment in a line: yeast two-hybrid β-galactosidase activity assay; parent: 51; read off a plot.
For the variant chain 1 L99A, chain 1 L101A, chain 1 L108A, chain 1 L115A, the response is ~25 β-galactosidase units. In the case of chain 1 L99A, the response is ~31 β-galactosidase units. On the same count and under the same terms, the value for chain 1 L99A, chain 1 L101A, chain 1 L108A was ~21 β-galactosidase units. chain 1 L99A, chain 1 L101A: the response was ~24 β-galactosidase units. On the same count and under the same terms, the value for chain 1 L99A, chain 1 L101A, chain 1 L108A, chain 1 L115A, chain 1 L116A was ~15 β-galactosidase units.

A further assay covers variants of B1. The experiment in a line: yeast two-hybrid β-galactosidase activity assay; parent: 26; read off a plot.
Turning to chain 1 L116A, the response is ~11 β-galactosidase units. The same measure, in the same setting: the same measure for chain 1 L99A: ~16 β-galactosidase units; for chain 1 L108A: ~15 β-galactosidase units; for chain 1 L101A: ~14 β-galactosidase units.

Take chain 1 L120A: the response is ~8.7 β-galactosidase units. On to chain 1 L115A, for which the response is ~13 β-galactosidase units.
